The chains are these.
B1: Protein Smaug homolog 1 (Homo sapiens), Q9UPU9 (parent)
chain: MMFRDQVGVLAGWFKGWNECEQTVALLSLLKRVSQTQARFLQLCLEHSLADCAELHVLEREANSPGIINQWQQESKDKVISLLLTHLPLLKPGNLDAKVEYMKLLPKILAHSIEHNQHIEESRQLLSYALIHPATSLEDRSALAMWLNHLEDRTSTSFGGQNRGRSDSVDYGQTHYYHQRQNSDDKLNGWQNSRDSGICINASNWQDKSMGCENGHVPLYSSSSVPTTINTIGTSTSTILSGQAHHSPLKRSVSLTPPMNVPNQPLGHGWMSHEDLRARGPQCLPSDHAPLSPQSSVASSGSGGSEHLEDQTTARNTFQEEGSGMKDVPAWLKSLRLHKYAALFSQMTYEEMMALTECQLEAQNVTKGARHKIVISIQKLKERQNLLKSLERDIIEGGSLRIPLQELHQMILTPIKAYSSPSTTPEARRREPQAPRQPSLMGPESQSPDCKDGAAATGATATPSAGASGGLQPHQLSSCDGELAVAPLPEGDLPGQFTRVMGKVCTQLLVSRPDEENISSYLQLIDKCLIHEAFTETQKKRLLSWKQQVQKLFRSFPRKTLLDISGYRQQRNRGFGQSNSLPTAGSVGGGMGRRNPRQYQIPSRNVPSARLGLLGTSGFVSSNQRNTTATPTIMKQGRQNLWFANPGGSNSMPSRTHSSVQRTRSLPVHTSPQNMLMFQQPEFQLPVTEPDINNRLESLCLSMTEHALGDGVDRTSTI
partner: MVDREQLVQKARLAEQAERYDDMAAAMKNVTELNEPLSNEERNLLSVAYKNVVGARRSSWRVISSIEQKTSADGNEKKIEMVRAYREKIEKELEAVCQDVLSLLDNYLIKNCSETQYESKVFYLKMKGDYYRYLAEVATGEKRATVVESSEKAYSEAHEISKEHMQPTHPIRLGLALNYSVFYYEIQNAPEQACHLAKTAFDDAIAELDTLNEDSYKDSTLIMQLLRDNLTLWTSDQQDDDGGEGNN
B2: 14-3-3 protein sigma (Homo sapiens), P31947 (parent)
chain: MERASLIQKAKLAEQAERYEDMAAFMKGAVEKGEELSCEERNLLSVAYKNVVGGQRAAWRVLSSIEQKSNEEGSEEKGPEVREYREKVETELQGVCDTVLGLLDSHLIKEAGDAESRVFYLKMKGDYYRYLAEVATGDDKKRIIDSARSAYQEAMDISKKEMPPTNPIRLGLALNFSVFHYEIANSPEEAISLAKTTFDEAMADLHTLSEDSYKDSTLIMQLLRDNLTLWTADNAGEEGGEAPQEPQS
partner: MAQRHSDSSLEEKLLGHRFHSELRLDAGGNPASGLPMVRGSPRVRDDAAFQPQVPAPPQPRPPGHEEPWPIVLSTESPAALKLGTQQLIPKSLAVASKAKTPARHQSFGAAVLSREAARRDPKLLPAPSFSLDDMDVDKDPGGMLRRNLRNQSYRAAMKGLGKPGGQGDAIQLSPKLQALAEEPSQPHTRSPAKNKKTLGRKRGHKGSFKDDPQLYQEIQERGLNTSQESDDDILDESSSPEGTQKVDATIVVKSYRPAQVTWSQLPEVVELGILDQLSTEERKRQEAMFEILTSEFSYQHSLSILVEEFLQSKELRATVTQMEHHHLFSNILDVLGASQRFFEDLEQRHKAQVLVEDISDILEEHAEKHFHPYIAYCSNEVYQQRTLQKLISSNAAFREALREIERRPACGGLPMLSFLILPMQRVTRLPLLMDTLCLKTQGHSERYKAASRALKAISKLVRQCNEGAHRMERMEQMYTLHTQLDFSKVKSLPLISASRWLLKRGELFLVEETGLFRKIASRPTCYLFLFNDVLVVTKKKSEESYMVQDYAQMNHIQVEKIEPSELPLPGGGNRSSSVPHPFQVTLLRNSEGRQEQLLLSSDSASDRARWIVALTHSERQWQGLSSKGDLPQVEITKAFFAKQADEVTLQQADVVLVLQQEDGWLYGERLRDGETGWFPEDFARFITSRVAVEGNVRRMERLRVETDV
B3: 14-3-3 protein sigma (Homo sapiens), P31947 (parent)
chain: B2 chain
partner: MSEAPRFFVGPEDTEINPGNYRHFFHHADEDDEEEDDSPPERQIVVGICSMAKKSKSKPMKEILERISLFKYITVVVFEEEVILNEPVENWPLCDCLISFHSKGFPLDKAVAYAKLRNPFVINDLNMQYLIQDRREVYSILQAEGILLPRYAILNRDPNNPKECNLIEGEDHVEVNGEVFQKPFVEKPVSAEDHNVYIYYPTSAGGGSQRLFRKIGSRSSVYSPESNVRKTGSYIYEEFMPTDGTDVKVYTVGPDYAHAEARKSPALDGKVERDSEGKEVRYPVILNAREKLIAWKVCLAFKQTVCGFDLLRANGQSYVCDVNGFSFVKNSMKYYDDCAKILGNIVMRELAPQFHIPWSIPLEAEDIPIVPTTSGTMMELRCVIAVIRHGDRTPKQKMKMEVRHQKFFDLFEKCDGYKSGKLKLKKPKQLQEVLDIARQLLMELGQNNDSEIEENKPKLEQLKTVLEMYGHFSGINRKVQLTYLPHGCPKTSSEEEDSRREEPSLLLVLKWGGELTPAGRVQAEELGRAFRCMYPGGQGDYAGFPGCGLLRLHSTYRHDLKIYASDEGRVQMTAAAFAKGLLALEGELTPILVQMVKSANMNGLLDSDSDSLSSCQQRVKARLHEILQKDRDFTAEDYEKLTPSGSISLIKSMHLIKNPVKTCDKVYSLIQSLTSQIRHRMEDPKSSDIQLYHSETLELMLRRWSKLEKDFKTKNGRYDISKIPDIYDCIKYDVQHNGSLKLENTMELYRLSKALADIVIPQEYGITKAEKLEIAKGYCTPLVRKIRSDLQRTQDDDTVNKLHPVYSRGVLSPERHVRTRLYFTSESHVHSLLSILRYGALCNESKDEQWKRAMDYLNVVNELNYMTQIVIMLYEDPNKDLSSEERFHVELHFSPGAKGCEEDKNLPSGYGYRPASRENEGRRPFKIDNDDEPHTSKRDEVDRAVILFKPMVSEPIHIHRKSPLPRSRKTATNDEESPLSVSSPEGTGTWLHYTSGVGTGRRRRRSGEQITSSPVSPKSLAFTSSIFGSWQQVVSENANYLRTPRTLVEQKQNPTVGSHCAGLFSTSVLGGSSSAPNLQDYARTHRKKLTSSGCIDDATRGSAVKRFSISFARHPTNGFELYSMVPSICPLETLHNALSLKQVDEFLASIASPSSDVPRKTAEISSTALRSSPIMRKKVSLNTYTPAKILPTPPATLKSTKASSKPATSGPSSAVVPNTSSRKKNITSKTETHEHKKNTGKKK

Variants of B1 are the subject of the first assay. Conditions: with 1433g_human YWHAG.
As to S168A;S183A;S254A;S580A;S665A;T717A, the “effect of a mutation on the interaction” value is “decreasing interaction strength”.

Variants of B2 are the subject of another assay. The conditions noted are these: with arhgg_human ARHGEF16, Q5VV41.
As for MERASLIQKAKLAEQAERYEDMAAFMKGAVEKGEELSCEERNLLSVAYENVVGGQEAAWRVLSSIEQKSNEEGSEEKGPEVREYREKVETELQGVCDTVLGLLDSHLIKEAGDAESRVFYLKMKGDYYRYLAEVATGDDKKRIIDSARSAYQEAMDISKKEMPPTNPIRLGLALNFSDFHYEIANSPEEAISLAKTTFDEAMADLHTLSEDSYKDSTLIMQLLRDNLTLWTADNAGEEGGEAPQEPQS [K49E;R56E;V178D], the “effect of a mutation on the interaction” value was “decreasing interaction strength”.

In a further assay the parent is B3. The conditions noted are these: with vip2_human PPIP5K2, O43314.
As for MERASLIQKAKLAEQAERYEDMAAFMKGAVEKGEELSCEERNLLSVAYENVVGGQEAAWRVLSSIEQKSNEEGSEEKGPEVREYREKVETELQGVCDTVLGLLDSHLIKEAGDAESRVFYLKMKGDYYRYLAEVATGDDKKRIIDSARSAYQEAMDISKKEMPPTNPIRLGLALNFSDFHYEIANSPEEAISLAKTTFDEAMADLHTLSEDSYKDSTLIMQLLRDNLTLWTADNAGEEGGEAPQEPQS [K49E;R56E;V178D], the “effect of a mutation on the interaction” value is “decreasing interaction strength”.
